According to patent US20140371080:

How the values were obtained:
[1] = target: EGFP-mOrange fusion (Aequorea victoria / Discosoma sp. (engineered)?) (UniProt P42212); settings: fluorescence imaging of halted RNA clusters on Illumina GAIIx; 1xPBS, 5 mM MgCl2, 0.01% Tween-20, room temp; published 5.1 nM
[2] = system: EGFP (Aequorea victoria (engineered)?); settings: CITED Shui et al. 2012; p76 states 5 and 15 nM by ITC and EMSA respectively; cited from earlier work

Substance: GFP aptamer (canonical, GFPapt)
- Kd [1]: 6 nM
- Kd [2]: 5.1 nM
